Reference: article PMC5143422 (Cell Research, 2016)

Legend:
[1] = biological target: FabZ (β-hydroxyacyl-ACP dehydratase) from Helicobacter pylori (Helicobacter pylori) (UniProt O25928); experiment: SEC-MALS
[2] = biological target: FabZ (β-hydroxyacyl-ACP dehydratase) from Helicobacter pylori (Helicobacter pylori) (UniProt O25928); experiment: MST
[3] = biological target: the molecule itself; experiment: SEC-MALS

Sequence of holo-acyl carrier protein (holo-ACP) from Helicobacter pylori (natural protein) (B2UTR8 whole entry): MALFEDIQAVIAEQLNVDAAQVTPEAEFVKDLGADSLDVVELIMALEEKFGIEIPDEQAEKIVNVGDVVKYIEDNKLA

| Molecule | stoichiometry N (holo-ACP per FabZ hexamer) [1] | KD, first phase of the triphasic binding curve [2] | KD, second phase of the triphasic binding curve [2] | KD, third phase of the triphasic binding curve [2] | stoichiometry N [3] |
| --- | --- | --- | --- | --- | --- |
| holo-acyl carrier protein (holo-ACP) from Helicobacter pylori (natural protein) | 3 | 0.354 µM | 16.2 µM | 297 µM | – |
| FabZ (β-hydroxyacyl-ACP dehydratase) from Helicobacter pylori (enzyme, fluorescence dye NT-647 (amine-reaction) in the MST assay only) MEQSHQNLQSQFFIEHILQILPHRYPMLLVDRIIELQANKKIVAYKNITFNEDVFNGHFPNKPIFPGVLIVEGMAQTGGFLAFTSLWGFDPEIAKTKIVYFMTIDKVKFRIPVTPGDRLEYHLEVLKHKGMIWQVGGTAQVDGKVVAEAELKAMIAER | – | – | – | – | 6 |
